Source: patent US20240287172A1 (SCIRHOM, published 2024)
Positions count from the first letter of the chain named.

Tests used:
hiR2-FL-L589A-T7 = target: T1, hiR2-FL-L589A-T7 (human, UniProt Q6PJF5 1-856); assay: FACS on MEF-DKO cells expressing the variant, 3 µg/ml antibody
T1 sequence: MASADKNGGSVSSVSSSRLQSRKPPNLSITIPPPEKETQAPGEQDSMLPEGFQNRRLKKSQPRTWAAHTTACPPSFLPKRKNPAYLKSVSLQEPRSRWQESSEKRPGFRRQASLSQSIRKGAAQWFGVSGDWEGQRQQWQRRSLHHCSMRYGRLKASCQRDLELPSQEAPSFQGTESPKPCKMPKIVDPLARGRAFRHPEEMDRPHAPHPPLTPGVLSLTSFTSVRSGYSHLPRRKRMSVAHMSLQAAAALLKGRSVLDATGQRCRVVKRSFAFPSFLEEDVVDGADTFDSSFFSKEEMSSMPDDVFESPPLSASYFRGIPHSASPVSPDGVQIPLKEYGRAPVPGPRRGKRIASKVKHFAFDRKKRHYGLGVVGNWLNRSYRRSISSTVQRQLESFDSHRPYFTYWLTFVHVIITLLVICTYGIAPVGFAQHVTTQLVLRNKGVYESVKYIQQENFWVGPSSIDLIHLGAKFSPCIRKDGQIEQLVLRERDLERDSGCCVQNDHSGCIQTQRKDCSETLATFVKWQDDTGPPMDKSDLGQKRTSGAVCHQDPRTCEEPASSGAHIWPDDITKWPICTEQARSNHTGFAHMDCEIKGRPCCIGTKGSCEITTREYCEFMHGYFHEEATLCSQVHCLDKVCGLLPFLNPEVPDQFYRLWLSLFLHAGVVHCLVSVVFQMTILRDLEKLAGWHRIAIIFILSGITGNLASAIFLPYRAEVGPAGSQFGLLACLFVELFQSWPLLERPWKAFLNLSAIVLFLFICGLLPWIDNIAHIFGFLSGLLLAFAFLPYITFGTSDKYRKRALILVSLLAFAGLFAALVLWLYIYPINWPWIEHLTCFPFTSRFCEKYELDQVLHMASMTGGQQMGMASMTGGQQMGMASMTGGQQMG
Summary of the method: (§1)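 Read-out is PE fluorescence by flow cytometry after two-step staining: antibody at 3 μg/ml for 1 hour on ice, then PE-labelled goat anti-mouse IgG F(ab′)2 (1:100) for 1 hour on ice.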

hiR2-FL-D592A-T7 = target: T2, hiR2-FL-D592A-T7 (human, UniProt Q6PJF5 1-856); assay: as above
T2 sequence: T1 sequence with A589L, D592A
Summary of the method: as §1

B1: antibody 48 (antibody, V domains shown)
VH: QVQLQQSGTELVRPGTSVKVSCKASGYAFTNYLIEWVKQRPGQGLEWIGVINPGSGFTKYNEKFKGKATLTADKSSSTVYMHLSSLTSEDSAVYFCARGLYRAMDYWGQGTSVTVSS
VL: DIQMTQSPASQSASLGESVTITCLASQTIATWLAWYQQKPGKSPQLLIYGATTLADGVPSRFSGGGSGTKFSFKISSLQAEDFVSYYCQQLYSTPYTFGGGTKLEIK
notes: mouse IgG, kappa light chain; also called clone #48; purified antibody 48
loss of binding vs wild type (hiR2-FL-L589A-T7): ≥ 60% | loss of binding vs wild type (hiR2-FL-D592A-T7): ≥ 60%

B2: antibody 50 (antibody, V domains shown)
VH: B1 VH with T9A, T16A, T30S, V79A, H82Q
VL: B1 VL with A30G, G50A, T52A, T53S, S85N, L91I
notes: mouse IgG, kappa light chain; also called clone #50; purified antibody 50
loss of binding vs wild type (hiR2-FL-L589A-T7): ≥ 60% | loss of binding vs wild type (hiR2-FL-D592A-T7): ≥ 60%
